# B1: Cytochrome b5, P00171 (parent)
# chain: MAEESSKAVKYYTLEEIQKHNNSKSTWLILHYKVYDLTKFLEEHPGGEEVLREQAGGDATENFEDVGHSTDARELSKTFIIGELHPDDRSKITKPSESIITTIDSNPSWWTNWLIPAISALFVALIYHLYTSEN
# Variants of: B1
# Conditions: Bos taurus, pH 7, Absorbance, phosphate 0.1 M, reversible: yes, structure 1CYO, whole UniProt chain shown
Variant,"ddG of mutation (higher = less stable) (30 °C, Urea)","denaturant midpoint (higher = more stable) (30 °C, Urea)","ddG of mutation (higher = less stable) (66.2 °C, Thermal)","unfolding enthalpy (van 't Hoff) (66.2 °C, Thermal)",Tm (Thermal),"change of melting temperature, mutant - wild type (higher = more stable) (Thermal)",unfolding enthalpy (van 't Hoff) (Thermal)
MAEESSKAVKYYTLEEIQKHNNSKSTWLILHYKVYDLTKYLEEHPGGEEVLREQAGGDATENFEDVGHSTDARELSKTFIIGELHPDDRSKITKPSESIITTIDSNPSWWTNWLIPAISALFVALIYHLYTSEN [F40Y],-1.03 kcal/mol,8.3 M,-0.79 kcal/mol,86.4 kcal/mol,69.6 °C,3.4 °C,86.4 kcal/mol
MAEESSKAVKYYTLEEIQKHNNSKSTWLILHYKVYDLTKHLEEHPGGEEVLREQAGGDATENFEDVGHSTDARELSKTFIIGELHPDDRSKITKPSESIITTIDSNPSWWTNWLIPAISALFVALIYHLYTSEN [F40H],,,2.82 kcal/mol,,54.9 °C,-11.3 °C,94.7 kcal/mol
MAEESSKAVKYYTLEEIQKHNNSKSTWLILHYKVYDLTKLLEEHPGGEEVLREQAGGDATENFEDVGHSTDARELSKTFIIGELHPDDRSKITKPSESIITTIDSNPSWWTNWLIPAISALFVALIYHLYTSEN [F40L],1.87 kcal/mol,4.9 M,1.87 kcal/mol,,59.1 °C,-7.1 °C,104 kcal/mol

# From FireProtDB (doi:10.1093/protein/10.5.575)
